This note sets out measurements from the RNAGym collection of RNA variant scans (doi:10.1073/pnas.2313332121).

B1: TPR 5TU (parent)
chain: GGAUCUUCUCGAUCUAACAAAAAAGACAAAUCUGCCACAAAGCUUGAGAGCAUCUUCGGAUGCAGAGGCGGCAGCCUUCGGUGGCGCGAUAGCGCCAACGUUCUCAACUAUGACACGCAAAACGCGUGCUCCGUUGAAUGGAGUUUAUCAUG

Variants at the floor of the assay were thinned out. Bounds are passed on as bounds.

Variants of B1 are the subject of this data set. As to the kind of experiment: polymerase ribozyme fitness, log enrichment relative to wild type (log ratio); higher = more active; in vitro selection for triplet polymerase activity. Summed up: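 Only genotypes with ≥10 input reads and ≥1 read per output were kept after Illumina sequencing of input and output libraries. These libraries were PCR-built, transcribed mutants of each subunit of a heterodimeric triplet polymerase ribozyme, each put through one triplicate in vitro selection round with frozen incubation at −7 °C, gel excision of extended constructs, streptavidin-bead capture and RT-PCR. Fitness is a logarithmic ratio of genotype enrichment to wild-type enrichment, from inverse-variance-weighted replicate averages, with the logarithm in base 2.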
Turning to C36A C63U, the “polymerase ribozyme fitness (log ratio)” value is -4.08.

In the case of C18G A21U A29C A37U C57U C95U U127G U148G, the “polymerase ribozyme fitness (log ratio)” value is -3.75.

Consider U102C C114G, for which the “polymerase ribozyme fitness (log ratio)” value is -4.11.

G11U G42C A47C G74A C96G C105U G140A: the “polymerase ribozyme fitness (log ratio)” value was not above -4.2.

Take A24U G50U U56G G58U C76U A122G: the “polymerase ribozyme fitness (log ratio)” value is -4.1.

Take U55A G81A: the “polymerase ribozyme fitness (log ratio)” value was -1.9.

Consider A30U C75G G84U C103G G124C, for which the “polymerase ribozyme fitness (log ratio)” value is not above -4.2.

In the case of U31G C85U, the “polymerase ribozyme fitness (log ratio)” value is 0.998.

For G62C C79U G141U, the “polymerase ribozyme fitness (log ratio)” value was not above -4.2.

Consider G88A C96G, for which the “polymerase ribozyme fitness (log ratio)” value was -3.74.

Take A3C G68U C93A: the “polymerase ribozyme fitness (log ratio)” value was not above -4.2.

Consider A26U U56A C93U, for which the “polymerase ribozyme fitness (log ratio)” value is -3.4.

With A21U C54U C63U G68A A73G C93G C108G U148G, the “polymerase ribozyme fitness (log ratio)” value was not above -4.2.

In the case of A20U C87U, the “polymerase ribozyme fitness (log ratio)” value was -2.07.

In the case of U31G A39G U55A A66C G68C C69U G117A, the “polymerase ribozyme fitness (log ratio)” value was not above -4.2.

For the variant C57U C69A G84U A121C, the “polymerase ribozyme fitness (log ratio)” value is -2.25.

As to C36U A49U U82A A107C G133C, the “polymerase ribozyme fitness (log ratio)” value was not above -4.2.

With A17C C18G A26U A41C U45G A49U U55A G62A G92U C108U C118U, the “polymerase ribozyme fitness (log ratio)” value was not above -4.2.

Regarding A3U A37U U56A A97U, the “polymerase ribozyme fitness (log ratio)” value was -3.82.

Regarding C85U A98G A113U U135C, the “polymerase ribozyme fitness (log ratio)” value is -3.59.

As to C54A U82C U146C, the “polymerase ribozyme fitness (log ratio)” value was -0.537.

C10G A20G G50U G59C C87U: the “polymerase ribozyme fitness (log ratio)” value is not above -4.2.

As for U53A C118U U134C G141A U146C, the “polymerase ribozyme fitness (log ratio)” value was -0.702.

In the case of U15C A21U, the “polymerase ribozyme fitness (log ratio)” value is 1.65.

G59C C87U U102G C132U U145G: the “polymerase ribozyme fitness (log ratio)” value is not above -4.2.

Take G50C G59U C118U: the “polymerase ribozyme fitness (log ratio)” value is -2.35.

On to A12G U45A C57G U78A G80U C103A C118G, for which the “polymerase ribozyme fitness (log ratio)” value was not above -4.2.

For the variant G58U G59U U82A G84A A115U G143A, the “polymerase ribozyme fitness (log ratio)” value was not above -4.2.

For the variant A49G C51A G94A G124U, the “polymerase ribozyme fitness (log ratio)” value was -3.32.

Take A29C C85U: the “polymerase ribozyme fitness (log ratio)” value was -3.79.

As for C75U C85U A106C A122C U135A U145A, the “polymerase ribozyme fitness (log ratio)” value was -3.69.

In the case of A41C G67C G83A C95G G143A, the “polymerase ribozyme fitness (log ratio)” value is not above -4.2.

In the case of C54U G84A G92U U144A, the “polymerase ribozyme fitness (log ratio)” value was -1.38.

On to C85G C129G, for which the “polymerase ribozyme fitness (log ratio)” value was -4.11.

Take A41C A142G U144C G152A: the “polymerase ribozyme fitness (log ratio)” value was -3.09.

On to C10G C14U C36A C79U G92U, for which the “polymerase ribozyme fitness (log ratio)” value was not above -4.2.

In the case of G50C G71A C95U G117C G143A, the “polymerase ribozyme fitness (log ratio)” value is not above -4.2.

As to C14U A39C G71C C85U A97G, the “polymerase ribozyme fitness (log ratio)” value is not above -4.2.

With C38A, the “polymerase ribozyme fitness (log ratio)” value was -0.151.

Take A37G A60G C87U: the “polymerase ribozyme fitness (log ratio)” value was -1.88.

Take G59C A73G G86U: the “polymerase ribozyme fitness (log ratio)” value was -2.26.

Consider A49C C51U C95U C96A G112A G126A, for which the “polymerase ribozyme fitness (log ratio)” value was not above -4.2.

Take C116U U146A: the “polymerase ribozyme fitness (log ratio)” value is -0.753.

Regarding C27A C85A, the “polymerase ribozyme fitness (log ratio)” value was not above -4.2.

U44A C51U C76U A106U A110G: the “polymerase ribozyme fitness (log ratio)” value is not above -4.2.

On to A12U C54A, for which the “polymerase ribozyme fitness (log ratio)” value was -1.78.

U9A C38A C72A G84A C125U: the “polymerase ribozyme fitness (log ratio)” value was not above -4.2.

A16U A49C G50A C54G C96A U101C U135G: the “polymerase ribozyme fitness (log ratio)” value is not above -4.2.

For the variant C8G C36U C114U A115G U135G A150C, the “polymerase ribozyme fitness (log ratio)” value was not above -4.2.

A41C C43A A60G: the “polymerase ribozyme fitness (log ratio)” value is not above -4.2.

With U44A A49C C93U C123G U130G, the “polymerase ribozyme fitness (log ratio)” value is not above -4.2.

A19U A73U: the “polymerase ribozyme fitness (log ratio)” value was -0.608.

Turning to G59C U78C C85A U144A A150U, the “polymerase ribozyme fitness (log ratio)” value was not above -4.2.

Consider C14U G50C A98U C108A, for which the “polymerase ribozyme fitness (log ratio)” value was not above -4.2.

As to C114U G124C, the “polymerase ribozyme fitness (log ratio)” value is -4.11.

Regarding A73U, the “polymerase ribozyme fitness (log ratio)” value is -0.424.

Regarding U53A C76U, the “polymerase ribozyme fitness (log ratio)” value was -1.36.

On to C38A G83A, for which the “polymerase ribozyme fitness (log ratio)” value was -0.746.

For C35U C72U U82G C96U A106G G112A, the “polymerase ribozyme fitness (log ratio)” value is not above -4.2.

A19G A26U U31C G92A C96G C103U: the “polymerase ribozyme fitness (log ratio)” value is not above -4.2.

Take A12G G83A G133C G143A U146G: the “polymerase ribozyme fitness (log ratio)” value is -3.34.

For A49U U55A A106G, the “polymerase ribozyme fitness (log ratio)” value is -0.994.

For A21G C116G, the “polymerase ribozyme fitness (log ratio)” value is 1.2.

Regarding G81A G133U, the “polymerase ribozyme fitness (log ratio)” value was -3.84.

Regarding C5G A16G A19G A24U A37G G50C G84U A120C G133U, the “polymerase ribozyme fitness (log ratio)” value was not above -4.2.

As to G71A A107U G133C, the “polymerase ribozyme fitness (log ratio)” value is not above -4.2.

Consider C27U A37C G59U G92C G117C, for which the “polymerase ribozyme fitness (log ratio)” value was -3.65.

As to U13C A39C C72A C76G C99G G140U A147C, the “polymerase ribozyme fitness (log ratio)” value is not above -4.2.

As to A17U A113U, the “polymerase ribozyme fitness (log ratio)” value was -1.99.

On to A12C A16U U145G, for which the “polymerase ribozyme fitness (log ratio)” value was -2.26.

As for C32U G59A, the “polymerase ribozyme fitness (log ratio)” value is -1.99.

Consider A20G C93U, for which the “polymerase ribozyme fitness (log ratio)” value was -2.59.

In the case of A30C C35U G88U C116G, the “polymerase ribozyme fitness (log ratio)” value was -3.99.

Consider A17U A21U U55A A91C C95G A98U C108G, for which the “polymerase ribozyme fitness (log ratio)” value is not above -4.2.

For A49G A66G G71C C87G C95G A120G G124C A142U, the “polymerase ribozyme fitness (log ratio)” value is not above -4.2.

As for U4G C35G C95G U134A G136U, the “polymerase ribozyme fitness (log ratio)” value was -4.16.

For A20G A26U U31G A40G C125G U151C G152A, the “polymerase ribozyme fitness (log ratio)” value is not above -4.2.

For C38U A47C C93A C125U, the “polymerase ribozyme fitness (log ratio)” value is -3.16.

In the case of C18G G84C G126U, the “polymerase ribozyme fitness (log ratio)” value is -2.27.

For U6C C14G A40C A52U A91U, the “polymerase ribozyme fitness (log ratio)” value was not above -4.2.

Consider A60G G94A C103A G140C, for which the “polymerase ribozyme fitness (log ratio)” value is not above -4.2.

With A23C A64G G70C, the “polymerase ribozyme fitness (log ratio)” value is not above -4.2.

Turning to C51A C72A G80U U146C, the “polymerase ribozyme fitness (log ratio)” value is not above -4.2.
